Data set [1] addresses T1, NF-kB p50/p50 homodimer (NFKB1) (Homo sapiens, UniProt P19838 P19838:1-433). In words: EMSA; competition vs 32P 113/114 probe. Particulars: protein: extract; tags: none; nuclear extract of LPS-stimulated THP-1 cells; chain copies: 2 (stated homodimer). The text has this:
(§1) The EMSA assay was employed to characterize oligonucleotide decoys for the NF-κB transcription factor. […] Using the above modified oligonucleotides to compete for binding for the above-mentioned NF-κB family members, it was possible to compare the binding affinity of these oligonucleotides against the high affinity radiolabeled probe and each other. This assay has also enabled the design of a decoy which selectively binds particular members of the NF-κB family. By using increasing concentrations of various oligonucleotides, it was observed that, by deleting or changing targeted residues in the binding site, it was possible to specifically decrease the binding of the decoy molecule to p50/p50 homodimers, while retaining the affinity for p65/p50 and cRel/p50 heterodimers.
(§2) The NF-κB gel shift assays (EMSA) were performed as follows. A double-stranded oligonucleotide containing a consensus NF-κB binding site (5′ […] 3′) (SEQ ID NO: 78) was end-labeled with γ³²P-ATP using T4 Polynucleotide Kinase (Promega). Alternatively, a double-stranded ODN containing a consensus NF-κB binding site from the IL-6 promoter (5′ […] 3′) (SEQ ID NO: 94) was end-labeled with γ³²P-ATP using T4 Polynucleotide Kinase (Promega). One microgram of a nuclear extract prepared from LPS stimulated THP-1 cells (human monocyte cell line) was incubated with 35 fmol of radiolabeled probe in the presence or absence of competing unlabeled NF-κB double-stranded oligonucleotides (dsODN) or scrambled dsODN. The incubations were carried out at room temperature for 30 minutes in a 20 μl reaction volume composed of 10 mM Tris-HCl pH 8, 100 mM KCL, 5 mM MgCl2, 2 mM DTT, 10% Glycerol, 0.1% NP-40, 0.025% BSA and 1 μg Poly-dIdC. The reactions were loaded onto a 6% polyacrylamide gel, subjected to electrophoresis and dried. The dried gels were imaged and quantitated using a Typhoon 8600 PhosphorImager (Amersham) and ImageQuant software.

Data set [2] addresses T2, NF-kB p65/p50 heterodimer (RelA/NFKB1) (Homo sapiens, UniProt Q04206;P19838 Q04206:1-551,P19838:1-433). In words: EMSA; competition vs 32P 113/114 probe. Particulars: protein: extract; tags: none; nuclear extract of LPS-stimulated THP-1 cells.
Source text: as §1, §2
On the technique in general: Mobility shift assays separate free from complexed probe on a gel.
Target sequence in this assay (Q04206 whole entry, chain 1 of 2, one chain of several): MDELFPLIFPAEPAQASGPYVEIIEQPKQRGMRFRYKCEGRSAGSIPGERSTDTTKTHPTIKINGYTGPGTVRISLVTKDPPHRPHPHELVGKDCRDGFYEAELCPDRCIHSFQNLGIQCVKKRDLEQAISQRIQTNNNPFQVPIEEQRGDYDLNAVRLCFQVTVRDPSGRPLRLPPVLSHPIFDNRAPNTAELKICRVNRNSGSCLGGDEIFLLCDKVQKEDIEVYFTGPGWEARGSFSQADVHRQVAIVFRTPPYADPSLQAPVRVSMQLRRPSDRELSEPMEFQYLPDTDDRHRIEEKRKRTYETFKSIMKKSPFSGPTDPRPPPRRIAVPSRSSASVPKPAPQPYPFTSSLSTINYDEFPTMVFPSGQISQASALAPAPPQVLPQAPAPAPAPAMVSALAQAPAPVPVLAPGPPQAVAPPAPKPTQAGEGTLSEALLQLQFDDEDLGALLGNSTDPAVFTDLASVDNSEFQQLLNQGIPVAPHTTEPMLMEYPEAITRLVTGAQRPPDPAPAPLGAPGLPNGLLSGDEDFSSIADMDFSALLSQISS

In data set [3] the target is T1, NF-kB p50/p50 homodimer (NFKB1). In words: competition; EMSA competition vs HIV NF-kB probe 113/114. Particulars: protein: extract; tags: endogenous, nuclear extract of LPS-stimulated THP-1 cells; chain copies: 2 (stated).
Source text: as §1, §2

Data set [4] deals with T3, NF-κB p65 from nuclear extract of LPS stimulated THP-1 cells (human monocyte cell line) (human, UniProt Q04206 1-551).
T3 construct: also called RelA
In words: EMSA with antibody supershift, THP-1 nuclear extract; heterodimer on DNA probe. The method, then:
as §2, with “software. […]” for “software.”

Data set [5] concerns the target T2, NF-kB p65/p50 heterodimer (RelA/NFKB1). In words: EMSA; competition vs 32P 113/114 probe, THP-1 nuclear extract, RT. Particulars: protein: extract; tags: none; nuclear extract of LPS-stimulated THP-1 cells.
Source text: as §1
Target sequence in this assay (Q04206 whole entry, one chain of several): as the sequence (Q04206 whole entry, chain 1 of 2, one chain of several) above
The NF-κB gel shift assays (EMSA) were performed as follows. A double-stranded oligonucleotide containing a consensus NF-κB binding site (5′ […] 3′) (SEQ ID NO: 78) was end-labeled with γ³²P-ATP using T4 Polynucleotide Kinase (Promega). Alternatively, a double-stranded ODN containing a consensus NF-κB binding site from the IL-6 promoter (5′ […] 3′) (SEQ ID NO: 94) was end-labeled with γ³²P-ATP using T4 Polynucleotide Kinase (Promega). […] The dried gels were imaged and quantitated using a Typhoon 8600 PhosphorImager (Amersham) and ImageQuant software.

T3 sequence (Q04206 whole entry): as the sequence (Q04206 whole entry, chain 1 of 2, one chain of several) above

B1: decoy 259 E-Z' (dsDNA)
DNA 1: TTGAGGACTTTCCAGGCTC
DNA 2: GAGCCTGGAAAGTCCTCAA
With B1, the IC50 in data set [1] worked out at 85 fold molar excess; in data set [2], 87 fold molar excess.

B2: 153/154 H9/H9 (dsDNA)
DNA 1: AGTTGAGGACTTTCCAGGC
DNA 2: GCCTGGAAAGTCCTCAACT
modifications: 9 3'-most linkages PS on both strands
Turning to B2, the IC50 in data set [3] was determined as 30 fold molar excess.

B3: NF-κB p50 from nuclear extract of LPS stimulated THP-1 cells (human monocyte cell line) (other, UniProt P19838 1-433, looked up)
chain: MAEDDPYLGRPEQMFHLDPSLTHTIFNPEVFQPQMALPTDGPYLQILEQPKQRGFRFRYVCEGPSHGGLPGASSEKNKKSYPQVKICNYVGPAKVIVQLVTNGKNIHLHAHSLVGKHCEDGICTVTAGPKDMVVGFANLGILHVTKKKVFETLEARMTEACIRGYNPGLLVHPDLAYLQAEGGGDRQLGDREKELIRQAALQQTKEMDLSVVRLMFTAFLPDSTGSFTRRLEPVVSDAIYDSKAPNASNLKIVRMDRTAGCVTGGEEIYLLCDKVQKDDIQIRFYEEEENGGVWEGFGDFSPTDVHRQFAIVFKTPKYKDINITKPASVFVQLRRKSDLETSEPKPFLYYPEIKDKEEVQRKRQKLMPNFSDSFGGGSGAGAGGGGMFGSGGGGGGTGSTGPGYSFPHYGFPTYGGITFHPGTTKSNAGMKHG
As for B3, the binding result in data set [4] is “binds”.

B4: 153/154 H8/H8 (dsDNA)
DNA 1: AGTTGAGGACTTTCCAGGC
DNA 2: GCCTGGAAAGTCCTCAACT
modifications: 8 3'-most linkages PS on both strands
In turn, B4 gave an IC50 in data set [3] of 53 fold molar excess.

B5: decoy 239 C-W' (dsDNA)
DNA 1: CTCGGGGACTTTCCCTCA
DNA 2: TGAGGGAAAGTCCCCGAG
For B5, the IC50 in data set [1] and in data set [2] was 9 fold molar excess throughout.

B6: 153/154 H5/PO (dsDNA)
DNA 1: AGTTGAGGACTTTCCAGGC
DNA 2: GCCTGGAAAGTCCTCAACT
modifications: strand 153: 5 3'-most linkages PS, strand 154 all PO
Molecule B6 showed an IC50 in data set [3] of 83 fold molar excess.

B7: decoy 191 A-X (dsDNA)
DNA 1: CTGGGACTTTCCTC
DNA 2: GAGGAAAGTCCCAG
In the case of B7, the IC50 in data set [1] was 22.5 fold molar excess; in data set [2], 19 fold molar excess.

B8: 153/154 H11/PO (dsDNA)
DNA 1: AGTTGAGGACTTTCCAGGC
DNA 2: GCCTGGAAAGTCCTCAACT
modifications: strand 153: 11 3'-most linkages PS, strand 154 all PO
B8 showed an IC50 in data set [3] of 33 fold molar excess.

B9: decoy 155 E-V (dsDNA)
DNA 1: TCGGACTTTCCTC
DNA 2: GAGGAAAGTCCGA
For B9, the results for the IC50 in data set [1] and in data set [2] were 97 fold molar excess and 81 fold molar excess, respectively.

B10: 153/154 H10/H8 (dsDNA)
DNA 1: AGTTGAGGACTTTCCAGGC
DNA 2: GCCTGGAAAGTCCTCAACT
modifications: strand 153: 10 3'-most linkages PS, strand 154: 8 3'-most PS
B10 had an IC50 in data set [3] of 21 fold molar excess.

B11: decoy 195 C-V (dsDNA)
DNA 1: TCGGGGACTTTCCCTC
DNA 2: GAGGGAAAGTCCCCGA
As for B11, the IC50 was 9 fold molar excess in data set [1] and 8.5 fold molar excess in data set [2].

B12: decoy 145 A-Z (dsDNA)
DNA 1: AGTTGAGGGACTTTCCAGGC
DNA 2: GCCTGGAAAGTCCCTCAACT
On to B12, for which the IC50 in data set [1] and in data set [2] was 8 fold molar excess each time.

B13: 153/154 H8/H10 (dsDNA)
DNA 1: AGTTGAGGACTTTCCAGGC
DNA 2: GCCTGGAAAGTCCTCAACT
modifications: strand 153: 8 3'-most linkages PS, strand 154: 10 3'-most PS
In data set [3], B13 showed an IC50 of 39 fold molar excess.

B14: 153/154 H10/H10 (dsDNA)
DNA 1: AGTTGAGGACTTTCCAGGC
DNA 2: GCCTGGAAAGTCCTCAACT
modifications: 10 3'-most linkages PS on both strands
In data set [3], B14 had an IC50 of 42 fold molar excess.

B15: decoy 113/114 C-Z (HIV NF-kB promoter) (dsDNA)
DNA 1: AGTTGAGGGGACTTTCCCAGGC
DNA 2: GCCTGGGAAAGTCCCCTCAACT
As to B15, the IC50 in data set [1] and in data set [5] was 5 fold molar excess throughout.

B16: decoy 121 A-V (dsDNA)
DNA 1: TCGGGACTTTCCTC
DNA 2: GAGGAAAGTCCCGA
On to B16, for which the IC50 in data set [1] was 34 fold molar excess; in data set [2], 25 fold molar excess.

B17: decoy 207 L-Z (dsDNA)
DNA 1: AGTTGAGGACTTTCCCAGGC
DNA 2: GCCTGGGAAAGTCCTCAACT
With B17, the IC50 in data set [1] worked out at 45 fold molar excess; in data set [2] it was 20 fold molar excess.

B18: decoy 221 C-X (dsDNA)
DNA 1: CTGGGGACTTTCCCTC
DNA 2: GAGGGAAAGTCCCCAG
For B18, the IC50 in data set [1] and in data set [2] was 25 fold molar excess throughout.
